Measurements taken from the DeepSol protein solubility set.

Assay: soluble on expression in E. coli; label from the status in PepcDB or PDB records

Q: Which “soluble on expression in E. coli” value does the source give for “MKSMTGFGKKTIQNENYQLDIEVKSVNQRFLDIQLRMPKELNAYELVIRQVIKRTLKRGRVEVYVNLQKIGNNQKEVRVQWDLIDQLLTSVDQHLKEKYPEATFDAGDTVNHLLKQNDFVEIVEAEIVDQTFEPFLVQAFEAAIASLDQSRVQEGTQIKQVLLDYVAVLTQSIQELQAFVGVFEQEYRQRFEAKLNEWLGSQVDETRLLTEMAILLEKGDIHEELDRLDIHIDKLHQLLDETEPVGRELDFLIQEMNREVNTIGSKSSPIEIKNSVVQMKTTLEKIREQIQNVE” here?
A: The value was “not soluble”.

Q: For “LLLNLFNFRNFKDLFRNDINMMTVEEILYNEIKEFQASDRRAWMVIGDRYYRCENDILNRRIVRHTESGDIEDRSKANNRLAHGFVKNLVDEKIGYLLTKDYSLKCDNKEYIEKVKNVLGKYFQYTLTRLGYEASNKGIAWLQVYINEQGKFGMMIIPAEQCVPLWKDNTHTELYGMIRYYVQTVYEGKEKKQITRVEYYTDKEVYFYVLDNDHLIPDIEQYEGGPILHYKKGEEGRSWGKVPFIAWKNNHLEYPDVKFIKSLVDAYDKSRSEIDNFIEETKNLIYVLKGYGGENLSDFMKDLNYYRAIKIDDPEHGGVDTLTPKIDIQAAKEHFEQLKRDINEFGQGVPKDLDKYGNSPSGTALKFLYSGLDLKCNHLEVEFRQSFNQLLYFVNRYLAENGQGNYENENVELIFNRDIQINETETINNCVNSKGIISDETILANHPWVSDVEEELKQIEKERKSEEPPMFGEGDEE”, which “soluble on expression in E. coli” value is on record?
A: The value was “soluble”.

Q: For “MASRRELKKNVNYIAGELFTECLINSMFIPGTDKAKADELMAEVLRMQDEFVSRISHTEPGNVKGFYKKFRVDFNAKVNEIIEAIGKLN”, which “soluble on expression in E. coli” value is on record?
A: The value was “not soluble”.

Q: Which “soluble on expression in E. coli” value does the source give for “MATNLKSIAKLQKPIQYDKVIEVDRIFADPAFIEQHRQRILASFKDAKESALYHELTHIVIKDNLFSAAMNEIVSYFEFQINPEELKNVVEGLKRDVVKDADEKTIQSIAEKIIKKALVFNFLQKEWKVEVSDDIVKRVISLYYEKTNQNVREYLDDKQKFEGIRTALIEERMVLETINHFKFHFNLTGQLPS” here?
A: Its value is “soluble”.

Q: For “MSLDYTYADDSLTLHTDMYQINMMQTYWELGRADLHAVFECYFREMPFNHGYAIFAGLERLVNYLENLTFTESDIAYLREVEEYPEDFLTYLANFEFKCTVRSALEGDLVFNNEPLIQIEGPLAQCQLVETALLNMVNFQTLIATKAARIKSVIGDDPLLEFGTRRAQELDAAIWGTRAAYIGGADATSNVRAGKIFGIPVSGTHAHSLVQSYGNDYEAFMAYAKTHRDCVFLVDTYDTLKAGVPSAIRVAREMGDKINFLGVRIDSGDMAYISKRVREQLDEAGFTEAKIYASNDLDENTILNLKMQKSKIDVWGVGTKLITAYDQPALGAVFKLVSIEGEDGQMKDTIKLSSNAEKVTTPGKKQVWRITRKSDKKSEGDYVTLWNEDPRQEEEIYMFHPVHTFINKYVRDFEARPVLQDIFVEGKRVYELPTLDEIKQYAKENLDSLWEEYKRDLNPQKYPVDLSTDCWNHKMNLLEKVRKDVKHLTETVNKEAEGHHHHHH”, which “soluble on expression in E. coli” value is on record?
A: Its value is “soluble”.

Q: Which “soluble on expression in E. coli” value does the source give for “MVGHVLYGWRDRPRRGEVDYPHTENIRMGHTWDSKRDVSKFDKSWSDQNIVDAIVATLENPDYALSGKVKRVVWKDIHGTTVRVSYNVCLMVGVISDRAYSDTPDRKAKRIVE” here?
A: Its value is “not soluble”.

Q: For “MPKESLLRELSALREQLEQQPPLNEEQRAELELLIRDIELKLANEDALNEGSLVDGVNLAVERFEVSHPTLAGTLRSIVQSLANMGI”, which “soluble on expression in E. coli” value is on record?
A: Its value is “not soluble”.

Q: For “MIEIKNVNKVFYQGSKEILALKDINLHIAKGTIFGVIGSSGAGKSTLIRCVNMLEAPSSGSIIVDGVDLTTLSKKQLVETRRNIGMIFQHFNLLSSRTVFDNVALPLELAGKDKSQITTKVTELLKLVGLADKHESYPSNLSGGQKQRVAIARALASDPSVLLCDEATSALDPATTQSILELLKEINRKLNITILLITHEMEVVKSICHEVAIIGGGELVEKGTVGDIFAHPKTELAHEFIRSTLDLSIPEDYQARLQPNRVEGSYPLVRMEFTGATVDAPLMSQISRKYNIDVSILSSDLDYAGGVKFGMMVAELFGNEQDDSAAIEYLREHNVKVEVLGYVL”, which “soluble on expression in E. coli” value is on record?
A: Its value is “not soluble”.

Q: With “MTETLDHMDQSKIDHQKLAQQLLAQAKAEGVELVGPNGLLNQLTANVLETALEAEMDEHLGYEKHHVTGRNRENSRNGRRTKTVLTEIGPVQIQVPRDTDASFDPQIVKKRQRRLTGVDEIILSLSAKGLTTGEIAAHFDDVYGASVSKETISKITDKVLTEMAEWSVRPLDPVYPVLFIDAIHVKIRDGQVANRPVYVAIGVTTAGEREILGLWAGDGGEGAKFWLAVLTEIRNRGVADVCIAVCDGLKGLPDAITTVWPLTVVQTCLIHLLRNTFRYASRQYWDEMSRDLRPIYTAVNEAAAKEQFTEFADKWGPRYPAIVRLWESAWSEFVPFLDYDPEIRRVICSTNAIESLNARYRRAVRARGHFPSEQAALKCLYLATRSLDPTGKGRARWVTRWKPALNAFAITFEGRITPTVI” as the sequence, how does the “soluble on expression in E. coli” value read?
A: The value was “not soluble”.

Q: With “MDYSEIMVRHGELSTKGKNRMRFINKLKNNIQDVLAPFPAITVRSDRDRTHVSLNGTDYQPIVEALKLVFGVQALSPVYKLEKSVPLLVTAVQDIMTSLYRDGLTFKIATKRSDHAFELDSRELNSLLGGAVFEVLPNIQAQMKHPDVTLKVEIRDEAAYISYEEIKGAGGLPVGTSGKGMLMLSGGIDSPVAGYLALKRGLDIEVVHFASPPYTSPGALAKAQDLTRRLTRFGGNIQFIEVPFTEIQEEIKNKAPEAYLMTLTRRFMMRITDAIREQRKGLVIVNGESLGQVASQTLESMQAINAVTSTPIIRPVVTMDKLEIIEMAQAIDTFDISIQPFEDCCTIFAPDRPKTNPKLGNAEKYEECFDIDGLVQRAVSGIVVTEITPEIVNDEVENLIDALL” as the sequence, how does the “soluble on expression in E. coli” value read?
A: Its value is “not soluble”.

Q: Which “soluble on expression in E. coli” value does the source give for “MARNSTLTNLFLSTKRNMGRLISHIVKADDIDDIVQETFIKTYEADLKQEIKYVRSYMLKTAKNLALNHVARWDNKYNDSLEDFSQPPVQLTSGKVEDDYESKEQFLFFCRATDQLSGSVRKCFILKKVYGLSQKEIASYLNLSESTVEKHIAQGLLKSTKYIKRMNHGHSVKGAKQNHQVHSLQVKKTVLK” here?
A: The value was “not soluble”.

Q: For “LGFNLKEAASIGIIGGADGPTTIYLTTKLAPHILSATAVAAYSYMSLVPLIQPPVIKALTTPEERRIRMEQLRPVSKREK”, which “soluble on expression in E. coli” value is on record?
A: The value was “not soluble”.

Q: For “MGSDKIHHHHHHMRLFRKEPKAEQLKVIIIGAGEVGYHIAHRLTRENKQVVVVDQQPEALRRVAEALDVQTIRGSGSSPVVLHDAGAEDADIILAVTDSDEINIIACLFANIISPASTKLARIRNEEYTLYRDALAQDILNISMIINPEVEVVKNIDRLLSLPGAVDYSEFADGRIRMVGMRICSGPLVGVRLMNFRTVISDGDVIIAAIVRNDELIIPTGMDEIRADDVVYFVCTESSLESVRNVVAALEDPIRSALIVGGGNIGMRLATLFERKGYHTKLVDRDEERCAVLAEKLNSTIVLHGDGTDQDLLREENAGTMDAVVCLTSDEETNILCSLLAKNMGVRKTVARINKVAYQPLVRAIGIEHSVSPRLSAVNSILHYIRKGKVLSSVAIRGEEAEVMEALAEAQSDIVGRPIHKLSFPKGALVLALVRGTEVVIPSGDTVIEPQDRILILSTRQAVSDVEQALMVKLKAY”, which “soluble on expression in E. coli” value is on record?
A: Its value is “not soluble”.

Q: For “MKGPNLTEISKKITDSNAVLLAVKEVEALLSSIDEIAAKAIGKKIHQNNGLDTENNHNGSLLAGAYAISTLIKQKLDGLKNEGLKEKIDAAKKCSETFTNKLKEKHTDLGKEGVTDADAKEAILKTNGTKTKGAEELGKLFESVEVLSKAAKEMLANSVKELTSPVVAESPKKP”, which “soluble on expression in E. coli” value is on record?
A: The value was “soluble”.

Q: With “MSLSSIRKKDVERFILSDDYKPMVLKELYKKFRAKTREQRKKVREVVKKLEKEGRIFRDSRGRYRKLGEDLKVGTIEFTRSGYVAFVITDDFEEIAVPVEDTKYAMHKDRVVVEITGTWRGLPRGRVVRVLERGLKRVVGVFDHKGTFGFVVPDDPKIAYDFYVAPENIDGAKPNQKVIAEILKYPSPGKNPEAKVVKVLGDLDDPSIDLPSVIVKHDLPEPGEFPEEVIREANAIPARVRKKDLVGRKDLRDKVIVTIDGEDAKDFDDAISVEKLPNGNYLLGVHIADVSHYVKEGSALDQEAFKRGTSVYLIDTVIPMLPFRLSNGICSLVEGKDRLTMSVEMEIDRDGRVVRYDVYPSVIKSKKRMIYERVNEFLEDPSSMKEYEPFKDLIYNAVELAEILREARRKRGAILDIESDEVKVILDENGQVVDIVPRKRGIAEKLIEEFMIRANETVAEIFDHAGLPFMYRVHEEPDPETIFQLKNYLEAMGIRAKFSHKIHPGMLQKLLEKVKDHPLRSSVERLLVRSMKRAMYSAVNIGHFGLASYAYTHFTSPIRRYPDLVVHRLLKLYLEQNGYFTPEQIEKFSKVLPKIAKHCSRRERVADEAEWDLVAMKKVEYIARHIGEVFNVVVTNITKFGLFVEIPEKSISGLVHISTLDDYYYYDETRNMLIGKRKGKVFRLGDVLKAKVVRADKIRGEIDFVLVEEDEEEGHHHHHH” as the sequence, how does the “soluble on expression in E. coli” value read?
A: Its value is “not soluble”.

Q: Which “soluble on expression in E. coli” value does the source give for “MAHHHHHHMRPLASFRGNTQTMLYTPVQDKYSILMEDDKLRVGASSMQGWRSTMEDAHTIHLSLPGLPSHMASEDGAIAAVFDGHCGSKTSQTSAIRILEWITSMEAFGEGNMEKAIRDGFIAGDLAMQRSSPNEMSGCTGNCVLIVENHLYCGNVGDSRAVLCRDGTAIPLSEDHKPNLPRERERVLRAGGYIHNGRVNGVLSLSRALGDFAFKDSDLPPEAQAVTAIPDVVHLELTPQDEFVIIACDGVWDMVTNEKAVEIVRSEVADHSDLSLACERLMDACLSKVSTGAGTDNMTVIILQFKSFFLKKVESRFGAISCNAAE” here?
A: Its value is “not soluble”.

Q: Which “soluble on expression in E. coli” value does the source give for “MNAPDKTGTDRRAVPAAVDLDALIRAEHRDPFSILGPHDDGKGGQYVRAYLPAALSVRLLARDDGRELAELHMSDVPGFFVGHLEQPQPYLLKINWAGGEQITEDPYSYGPLLG” here?
A: Its value is “not soluble”.

Q: Which “soluble on expression in E. coli” value does the source give for “MGSDKIHHHHHHMTESSDYESVQVFIGVDVGKDTHHAVAINRSGKRLFDKALPNDENKLRSLISDLKQHGQILLVVDQPATIGALPVAVARSEGVLVGYLPGLAMRRIADLHAGEAKTDARDAAIIAEAARTLPHALRTLKLADEQIAELSMLCGFDDDLAAQTTQASNRILGLLTQIHPAPERVLGPRLEHPAVLDLLQRYPSPEKLASLGEKKLAAQLCKLAPRLGKRLAADIAQALAEQTVVVPGTNAAAVVLPRLALQLITLRKQRDEVALEVEQRVLAHPLYPVLTSMPGVGVRTAARLLTEVACRAFASAAHLAAYAGLAPVTRRSGSSIRGEHPSRRGNKALKRALFLSAFTALRDPLSRAYYTRKMSQGKRHNQVLIALARRRCDVLFAMMRDGTFYTPQGS” here?
A: Its value is “not soluble”.

Q: With “ALKQKIIGNGEKRVVTYAPTWREDDFISVGHYHFRWHFSLKKMMGLLPEDVMLLIRPHYLVTDRIDIKGFEDRVVIDSTTDMNEIYLITDLMVTDYSSVMFDFAILKRPMLFFAYDLEYYRDDLRGFYFDYYTELPGSIVTDETHLLAEIDQLLQNNFAELDPERFNKFAKRFVSWERGTAAQQVIEKINYRRDEK” as the sequence, how does the “soluble on expression in E. coli” value read?
A: The value was “not soluble”.

Q: For “MGSDKIHHHHHHMTWQVERIANEHLTLEVLPQIGASVLNLRAASGRPVLRPVNPAAVQTSSQCASFTLLPYSNRIRDARFSFQGREVLLRPTTKDGLAQHGDVRNRPWQVTRVADTHLRGDFDSRAFNDMNWPWAFTARVEYLLHGPHLDTSVTLTNVDTDEMPAGMGLHPYFTRRHGGRDPFLSFGAALTYDTDERQLPTGGPRTLHPEEDYQMPSSIGDRQLDRVYTAWDGRARLDWGERALTLTADAVYSHLVVFTAPDGSLALEPVTHATDAFNLAARGVSGTDMRTLLPGQSLAGTVRITLEGAW”, which “soluble on expression in E. coli” value is on record?
A: The value was “not soluble”.
